Assay results: patent US20230002466A1 (ELPIS BIOPHARMACEUTICALS, published 2023)

What was measured:
[1] = biological target: T1, human IL2Rβ Fc fusion protein (human, UniProt P14784 27-239); experiment: ELISA, receptor-Fc coated, anti-Flag HRP
T1 construct: also called Recombinant Fc-tagged human IL2Rβ; not shown: Fc
T1 sequence (looked up): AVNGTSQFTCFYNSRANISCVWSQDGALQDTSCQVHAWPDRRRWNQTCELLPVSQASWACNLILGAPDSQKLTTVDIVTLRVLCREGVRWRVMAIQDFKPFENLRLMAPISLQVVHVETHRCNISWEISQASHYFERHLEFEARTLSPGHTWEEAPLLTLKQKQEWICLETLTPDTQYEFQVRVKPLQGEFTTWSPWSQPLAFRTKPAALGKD
Summary of the method: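 Plates coated overnight at 4 C with IL2Rα or IL2Rβ Fc fusion at 2 ug/mL, then blocked. Flag-tagged IL2 mutant dilutions were added in duplicate, and binding was detected with anti-Flag HRP (1:5000) and TMB for 5 min. EC50 was fitted from OD450.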

human IL2Rβ [2] = biological target: T2, human IL2Rβ (human, UniProt P14784 27-239); experiment: SPR, receptor captured on Protein A chip, E. coli-produced IL2
T2 construct: also called IL2β; CD122
T2 sequence (looked up): T1 sequence (looked up)

human IL2Rβ [3] = biological target: T2, human IL2Rβ; experiment: SPR, IL2Rβ captured on Protein A chip
Procedure: The assay was run with Biacore T200 control software version 2.0. For each cycle, 1 ug/mL of human IL2Rβ was captured for 60 seconds at flow rate of 10 uL/min on flow cell 2 in 1×HBSP buffer on Protein A sensor chip. 100 nM of HIS and Flag tag purified each IL2 mutant was 2-fold serial diluted and injected onto both reference flow cell 1 and IL2Rβ captured flow cell 2 for 150 seconds at flow rate of 30 uL/min followed by washing for 300 seconds. The flow cells were then regenerated with Glycine pH2 for 60 seconds at a flow rate of 30 uL/min. The assay was set up with 8 serial diluted concentration points in 96-well format. The kinetics data was analyzed with Biacore T200 evaluation software 3.0. The specific binding response unit was derived from subtraction of binding to reference flow cell 1 from target flow cell 2 (FIGS. 16A-16F, Table 10).

[4] = biological target: T3, human IL2Rα Fc fusion protein (human, UniProt P01589 22-213, limits assumed); experiment: ELISA, receptor-Fc coated, anti-Flag HRP; Table 9 ELISA: titration 100 nM to 0 nM, anti-Flag HRP detection
T3 construct: also called Recombinant Fc-tagged human IL2Rα; not shown: Fc
T3 sequence (looked up): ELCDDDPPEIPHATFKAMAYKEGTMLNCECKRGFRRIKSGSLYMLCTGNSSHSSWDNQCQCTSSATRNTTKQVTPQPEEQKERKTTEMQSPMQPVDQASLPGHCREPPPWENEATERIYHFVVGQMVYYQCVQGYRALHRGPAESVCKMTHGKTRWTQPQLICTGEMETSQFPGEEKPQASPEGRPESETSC
Procedure: Briefly, 384 well plate was immobilized with human IL2Rα and IL2Rβ Fc fusion proteins at a final concentration of 2 ug/mL in 1×PBS in total volume of 25 uL per well. The plate was incubated overnight at 4 C and blocked with 80 uL of superblock per well for 1 hour. […] Each dilution was added to IL2Rα or IL2Rβ wells in parallel in duplicates. The IL2 mutant binding was detected by adding 25 uL of anti-Flag HRP diluted at 1:5000 in 1×PBST. In between each step, the plate was washed three times with 1×PBST using a plate washer. The plate was then developed with 25 uL of TMB substrate for five minutes and stopped by adding 25 ul of 2N sulfuric acid. The plate was read at OD450 nm Biotek plate reader and the EC50 was analyzed with Prism 8.1 software to generate EC50 values (FIG. 15A for IL2Rα, and FIG. 15B for IL2Rβ, summarized in Table 9).

[5] = biological target: T1, human IL2Rβ Fc fusion protein; experiment: ELISA, Fc-tagged receptor coated, anti-HisTag-HRP
Summary of the method: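 IL2 mutants, diluted from 1000 nM to 0 nM, were incubated 2 h at RT on plates coated overnight at 4 °C with Fc-tagged human IL2Rα (or IL2Rβ). Bound protein detected with anti-HisTag-HRP (1:5000, 1 h) and TMB. Absorbance read at 450 nm after acid stop.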

human IL2Rβ [6] = biological target: T2, human IL2Rβ; experiment: SPR, receptor captured on Protein A chip, mammalian-produced IL2
Procedure: The assay was run with Biacore T200 control software version 2.0. For each cycle, 1 μg/mL of human IL2Rβ or IL2Rα was captured for 60 seconds at flow rate of 10 μL/min on flow cell 2 in 1×HBST buffer on Protein A sensor chip. Two-fold serial diluted HIS tag purified engineered IL2 mutant was injected onto both reference flow cell 1 and IL2Rβ or IL2Rα captured flow cell 2 for 150 seconds at flow rate of 30 μL/min followed by washing for 300 seconds. The flow cells were then regenerated with Glycine pH 2 for 40 seconds at a flow rate of 30 μL/mins. Eight concentration points from 0 to 100 nM were assayed for each IL2Rβ agonist clone 96-well plate format. The kinetics data was analyzed with Biacore T200 evaluation software 3000. The specific binding response unit was derived from subtraction of binding to reference flow cell 1 from target flow cell 2.

[7] = biological target: T3, human IL2Rα Fc fusion protein; experiment: ELISA, single point, Fc-tagged human IL2Rα coated, anti-His-HRP; concentration not printed (Example 14)
Procedure: Recombinant Fc-tagged human IL2Rα and IL2Rβ were added in 25 uL of 1×PBS to wells of 384-well plate and incubated overnight at 4° C. to coat the plates. Plates were washed three times with 0.05% Tween20/1×PBS. Plates were blocked with 100 uL of SuperBlock for 1 hr at RT and then washed 3 times with 0.05% Tween20/1×PBS. IL2 mutants were diluted in 0.05% Tween 20/1×PBS from 1000 nM to 0 nM and added to plates for 2 hrs at room temperature. Plates were then washed 6 times with 0.05% Tween20/1×PBS. Anti-HisTag-HRP was diluted 1:5000 in 0.05% Tween20/1×PBS and added to plates for 1 hr at RT. Plates were then washed 6 times with 0.05% Tween 20/1×PBS, and TMB was added to develop blue color. Reactions were stopped with 2N […] and light absorbance at 450 nm was read on a BioTek plate reader.

human IL2Rα = biological target: T4, human IL2Rα (human, UniProt P01589 22-213, limits assumed); experiment: SPR (Biacore T200), human IL2Rα, single concentration of the IL2 protein, not printed (Example 13)
T4 construct: also called IL2α; CD25
T4 sequence (looked up): T3 sequence (looked up)

human IL2Rβ [8] = biological target: T2, human IL2Rβ; experiment: SPR, single concentration

B1: EP001 (ligand)
chain: APTSSSTKKTQLQLEHLLLDLQMILNGINNYKNPKLTRMLTFKFYMPKKATELKHLQCLEEELKPLEEVLNLAQSKNFHLTARDAVDNMRVIIQELKGSETTFMCEYADETATIVEFLNRWITFCQSIISTLT
notes: Produced in E. coli or mammalian cells; also called EP0001; not shown: C-terminal Flag and 6xHis tags
[1]
  EC50: 0.7 nM
Human IL2Rβ [2]
  Kd: 1.12 nM
  koff: 0.00365 s⁻¹
  kon: 3.26e+06 M⁻¹ s⁻¹
  relative activity IL2Rβ (KD: fold) against WT IL2: 3890 fold
Human IL2Rβ [3]
  Kd: 1.52 nM
  koff: 0.00589 s⁻¹
  kon: 3.86e+06 M⁻¹ s⁻¹
[4]
  EC50: 259 nM
[5]
  EC50: 8.1 nM
Human IL2Rβ [6]
  Kd: 0.743 nM
  koff: 0.00417 s⁻¹
  kon: 5.61e+06 M⁻¹ s⁻¹
  relative activity IL2Rβ (KD: fold) against WT IL2: 1360 fold

B2: EP341 (ligand)
chain: APTSSSTKKTQLQLEHLLLDLQMILNGINNYKNPKLTDMLTFKFSMPKKATELKHLQCLEEELKPLEEVLNLAQSKNFHLTARDAIDNINVIVQELKGSETTFMCEYADETATIVEFLNRWITFSQSIISTLTGSHHHHHH
[7]
  binding result: no binding (tested: not printed)
Human IL2Rα
  binding result: no binding (tested: single concentration, not printed)
[5]
  EC50: 64.1 nM
Human IL2Rβ [8]
  Kd: 2.54 nM
